The data set in a line: label from the status in PepcDB records.
As to “MRDYATTAAGFDLQRTAAATLSGTLQALNACVECCDRHALPGRIALFWEGKDGSRASYTFSELKALSGRFANFLQAQGVRPGDCVAGLLPRTPELLVTILGAWRLGAVYQPLFTAFGPKAIEHRVATAGSKVLVTDAANRDKLDELADPPLAVTVGGPKGQGIRRGDFSFWAELERYPAEFEPVPRSGEDPFLMMFTSGTTGLAKPVPVPLKAILAFVGYLREAVDLRPEDAFWNLADPGWAYGLYYAVAGPLAMGHPTTFYEGPFSVESTCRIIRDYGITNLAGSPTAYRLLMAAGAAAETALKGRLRAVSSAGEPLTPEVIRWFADRLGTTIHDHYGQTELGMVLCNHHALAHPVRVGAAGFACPGHRVVVLDDDLNELPPGQPGILALDRRRSPLMWFPGYQGLETAAFVGDYYLSGDTVELNEDGSISFVGRADDVITTSGYRVGPFDVESALIEHPAVMEAAVIGKPDPERTELVKAFVVLCAGHRPTPELADALQRYVRQRLSAHAYPREIEFLEELPKTPSGKIQRFLLRNQEIARQREAAPRAAAAN”, the protein production result is on record as “failed”.

“MREESIGRIAKDFLGHEGFQLTEWGGGNLNYLYRVDSTKESYILKYAPPYIRCLGEGYPLSSERLRYEILGLKAANETIPEFAPKLFYVAKEGVVMEYLEGFKLLRQAFIQGEKIPHLAEHLAEMLARFLVKNSFWALNEGERKKLLEQSENSLMRRLSEDYIFTFPFMEHPTNQKNPTSAPSVREIHQDKEWLGAILWLKSRFSTAKEGLLHGDLHTGSLMIKGEQIKMIDFEFSFVGPLSFDLGAILANWLIAYRTHKERGEVGGYSQWLREEMEEFIERFKEQFEFWAGEHGAPQIGIKGYLEALLIEAWGMAGVKIARRILGAAGVEDITSLESPLKEEVERRLLVLSREMTLRAALGIIPIQKGGREAYSWLF”: the protein production result is listed as “failed”.

With “MREGSCPRLARCPGANWGHGRILHTRLHLASLPRPCYFFVTAYINGRETITASCKRSGVSPIPFRPMSPDFPLAPLDLAIIVGYFAVVGIIGYVVAQRIESGEDLFLAGRTLTWGTIGFSLFASNISSTTLIGLAGDAYRTGIAVSNYEWMAGIVLVFIAVFFVPFFIRSGLTTIPEYLEKRFDVRSRKYFSGLTIFTSVIIDTAGGIYAGTLVIKTFFPDLIPGMGPEMDFYVTCFILALIAGVYTAAGGLAAVVYTDILQAVILLVGSVFIAGITFAEFDFSWAQATAQLPEGHLSLMRPMGAEGLPWLGTLVGVPILGFYYWGLNQYIVQRILGARDLDNARWGAMLGGLLKLLPLFIMVLPGAFALQLYPDLGNPDQVFPTLVTDLLPVGIVGLVMAGLIAAIMSTIDSTLNSASTLITIDFVKPRWPDLTPQQVGTVGRVTTIILMLFAAVWAPQIREFPGLWSYIQSVLSYLVPPVVAVFLLGIFWPRTNGSGAFATLLGGHALSIAVFLCAQDGLLFADAPIDLHFTIIAGILTALCLGMLVAFSLTLGPPPAEEEIDDLTWANRVLETGPAMAWYKNYRVHAATVLALTAVMLVVFW”, the protein production entry is reported as “failed”.

On to “MRELLKVTLIVMLVLINAFFVACEFAMVKLRSSRIDTMITEGNNNAKRCKIIKDNLNSYLSACQLGITLCSLALGWMGESTVKELILPIVSVFNLSESIIYTISISISFLIITMMEVVIGELVPKALALYNTEKIMLSTSFLLVGFYKLTYPIIYFFNLSTDLFLKPFGYSQADEVDEPHTGDEIRLLVEESYKSGLIDESEQRLVDNIFEFEEKKIREIMVPRTDMVCIYESDSEEKILAILKEEGVTRYPVCRKNKDDILGFVHIRDLYNQKINENKIELEEILRDIIYISENLTIDKALERIRKEKLQLAIVVDEYGGTSGVVTIEDILEEIVGEIQDEFDKEETHIKKIGAGSYLVDGTESINYINKYFGLDIEHDGFDSIGGWISYMLGSNIKVNQSVTFENYNFTILELDKLRVVKLIIKSVI”, for which the protein production entry was “failed”.

Consider “MREPYYKKLLGIKNYLIRKNYPEELEILIPKYVEENKELRGCIDCLSCLSVCPAREVSDYPGPTFMRQLARFAFDKRDEDGREITAYFENIYNCTTCAKCVEVCPKEIDIVHRAIEKLRALAFSKGYLEHHHHHH”, for which the protein production entry was “failed”.

As to “MRFIITLFLILQLTTLAFSAHSRDKIGLVLSGGGAKGSAHIGVLKVLEQHNIPIDYVVGTSIGAYVGGMYALGYEVSEIEAIMLGMPWDESYSDFIPRESLAYDKKQHRDRYNISIRLGYSDGEFKVPHGLLLGQSAYQILQRSTDTVRSFDSFDDLAIPYRAVASDIATAKMVVLDSGSINEAMKASAAVPGIVAAVEIDGKTLVDGGITNNMPIDVIKAMGADIVIAIDIGSPLAEQSELTSTVSVLNQLSTILTNNTSLAQKALLTDKDILLRPAIDKLSTTDWSVMPEALKLGEQEAQAQSQALMKLAISDVDYQAYKNQKKLKAKKWFDALPRHITKIKINNNSKVENDIIEKVFAVELGKKLTKEALDLAINRVYALDKFEQVTVEFDDSPEGRIITLTTQAKSWGPNYFDFGFNLKTDFSDQSITSINMSYLMTNVSMNGGRWLNELELGWESLLASEFYQPLDHSHDIYSRARVSFAQDKWEKTSFREELRNEYYQATLALGYDYSFKGIIELGVIAETGDLSLDKPGTDDFDYDSYGSFITFGYDTLDSINFPTNGNKLLIEVKWLKDEYSPQLSDVEKDTATTFALDWRGAIGIRGHTFVGIASFATIDNESDFSVHVTELGGFLNLSGYQEDALIGVHKVFAAVVYQYDLGREIPGGSGLPIYLGTSLEAGNVWGGEDRIRYNDLISSGSIYLGTDTSFGPAVLGMGFATSGEHSFFLSIGKNW”, the protein production entry was “failed”.

With “MRFSQLLLALCCLTFGAQADVFIKQEDMDLKQALEAIAKDMQLKLVSDIDSKTSSQPITQTLSGSGPMLLSKLSSVFDFDWYTFGGTLTIQSGQQYANYTYKPKNISPSQLLSEMKGAFKTNSTTKIKLVERGHSLLFSGTRKFVNDAMGYASMVDRNQFLEKGNNLEVARIEFNYVSVMDRNIATYDGQVNFPGAQSLIAAAITNIGQFTNLNDEELTSRAYRVKLSQGEKQALEEDEKSTKVQALPGTNALLIRGTQEEVKLAKRIAALIDVKRRQLLFSLKVYDISAERKENLGIDSGWLNGNRGIYDIVVPPFTETKDFVKNFQALYSNGIARSVYETNLVALENQQSQFGKKQTATLTLISDKQVKTEKIEADNSLYVTGRLLPSGQVQARIQYVEESLDEDDNEDSNRPPRVSSQSLNSEVYIQPNQTVILGGFDNTVTQQQESGVPIISSIPLLGELFKYTSESKHKYKRYVSISFQVIE”, the protein production result is reported as “failed”.

Take “MRFSYIEPRAKYLISKLSKIWVFYIFLSFVVIGGLVWFMHNAIKSTQDNASSLTIQERLYRHEISRLQVKTDETLKLIKEAKKRLNYNDDIRDVLQGLLNIVPDSITINSIEIDQQSVVVSGKTPSKEAFYFLFQNKLNPMFDYSRAEFFPLSDGWFNFVSTNFSNSLLIKNPESIK”: the protein production entry was “failed”.

For the sequence “MRGANERKTERARGLRQSDNDAEALLWSELRDRRLNGFKFVRQVAVGPYFADFACRDERLVVEVDGSQHQIGSGDARRDKFMVMNGWSVLRFWNTDIFNDRAAVLETIVAVLEKRLVREVRSADLTFIPGEKKR”, the protein production result was “not failed”.

As for “MRGEGRRIGAMSETPEIPGSGYRTGEALLRAGDIAGAITAFRGHLAASPDDALGWFALGSALFFAQRWEETRAAYARAAAIDRAYTLGGLLRPGDVETALDPAPFLGQLPEMSMIIPPAHSGPLAVVGCDSAYFLDFGAALALSMDKAAPGWGLHLHLIAPTTPALDLLERLIGGLRAITLSFSLEHLPPALRAPEAQRTYLACLRFMRLPAILDEQQARAGRVPVVVLDADSLMCKPLLGPDDWRPPGPEGGWRAGWDVALKDSGLFPLGPLWRYSASCVGLAPTDEARAFAAHVATLLARQALTVNGLGWMIDQFALAVAIAARQTQSPAFRLGDWPDRLYRLYENPPDAALWSFCSQSKYDDRLYRDMVRLLLAEMG”, the protein production result is “failed”.

Take “MRGKRGFFGHADSRVRLFCRRLTGKQRILLAGTASFLLAASCLYSILSCVSRFGEPGQRPAMGHIRSVVFRPERTRNIHSNIHKHENGLSENQGTARSVK”: the protein production result was “failed”.

With “MRGMAANQGERIRRRLSTGERREQLLSVGARLFSESPYDEVWIEQVAEIAGVSRGLLYHYFPNKRDFFAAVVERESERMLRMTAAVPGVPVREQLTAGLDAYLEYVRAHAHGYRAFHRADAAGDRAVRRVYQKALAAQERQILAALAADPEFGPAFEERGDVRLAVRGWLAFTTAVCLEWLRDPEPAREQVRDLCARALLGAVAP”, the protein production result is reported as “not failed”.

Values taken from a protein production outcome set (Wang et al. 2014).
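Note: failed if final PepcDB status was selected cloned or expressed and not failed if soluble or beyond.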
